The target of assay [1] is SARS-CoV-2 spike RBD (S-RBD), hFc tag removed by thrombin digestion, biotinylated (SARS-CoV-2, UniProt P0DTC2 319-541). The assay can be described thus: BLI.
The target of assay [2] is SARS-CoV-2 RBD titrated over immobilised Fabs (construct not stated) (SARS-CoV-2, UniProt P0DTC2 319-541). Kind of assay: BLI.

B1: S-E6 full-length human IgG4e1(S228P) antibody (antibody, V domains shown)
VH: QVTLRESGPGLVKPSETLSLTCAVSGGSLSSVNYYWSWIRQHPGKGLEWIGYIYYSGSTNYNPSLKSRVTMSLDTSKNQFSLKLSSVTAADTAVYYCATPGAIMGALHIWGQGTLVTVSS
VL: QAVLTQPSSASSTPGQRVIISCSGSSSNIGSNTVSWYQQVPGAAPKLLIYFDYRRPSGVPDRFSGTRSGTSASLGISGLQSEDEADYYCAAWDDSLSAWVFGRGTKLTVL
B1 registered a koff in assay [1] of 0.000865 s⁻¹.

B2: S-E6 Fab (Fab, V domains shown)
VH: B1 VH
VL: B1 VL
In the case of B2, the off-rate (koff) in assay [2] is 0.00196 s⁻¹.

B3: S-B8 Fab (Fab, V domains shown)
VH: QVQLVQSGGGLIQPGGSLRLSCAASGFTVSLSHMNWVRQAPGKGLEWVSITYGDGNSDYADSVKGRFTISRDNSKNTLYLQMNSLRAEDTAVYYCAREYYYGMDVWGQGTTVTVSS
VL: not shown
In turn, B3 registered a koff in assay [2] of 0.0027 s⁻¹.

B4: S-B8 full-length human IgG4e1(S228P) antibody (antibody, V domains shown)
VH: B3 VH
VL: not shown
With B4, in assay [1], the koff came out at 0.00267 s⁻¹.

These data come from PMC8646600 (2021).
